Patent US20260001928A1 (CORTERIA PHARMACEUTICALS, priority 2022, published 2026)
*1 amine or outer side, *2 acyl side, *3 side chain or, on linkers, in order; H or OH if unused. Where no end group is shown, it is not given here. Side-chain parts run from the residue outwards. [ ]: non-standard residue; d: D form. The star is where a group is joined. C18 diacid = O=C(O)CCCCCCCCCCCCCCCCC(=O)*; C16 diacid = O=C(O)CCCCCCCCCCCCCCC(=O)*; γGlu = O=C(O)[C@H](CCC(=O)[*:2])N[*:1]; NMeI = CC[C@H](C)[C@H](NC)C(=O)O; Api = NC1(C(=O)O)CCNCC1; Abu = CC[C@H](N)C(=O)O; Aib = CC(C)(N)C(=O)O

T1: CRF1R receptor (UniProt P34998 24-415, limits assumed)
T1 sequence (looked up): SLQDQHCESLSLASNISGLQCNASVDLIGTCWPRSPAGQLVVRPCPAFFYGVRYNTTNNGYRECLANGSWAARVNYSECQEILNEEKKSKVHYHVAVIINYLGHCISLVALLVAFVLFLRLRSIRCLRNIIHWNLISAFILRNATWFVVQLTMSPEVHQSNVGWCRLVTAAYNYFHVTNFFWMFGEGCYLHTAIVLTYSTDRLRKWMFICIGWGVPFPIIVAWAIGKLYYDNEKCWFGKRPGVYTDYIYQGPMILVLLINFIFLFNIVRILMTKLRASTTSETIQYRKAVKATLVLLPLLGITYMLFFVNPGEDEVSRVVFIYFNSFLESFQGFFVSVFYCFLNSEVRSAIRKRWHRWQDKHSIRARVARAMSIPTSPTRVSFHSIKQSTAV

B1: SEQ ID NO 137 (peptide)
peptide: [NMeI]VLSLD[dV]PIKLK([γGlu-C18 diacid])KILLEQEKQKKQREQAETN[Aib]QILAQV-NH2
modifications: N-terminus assumed
SMILES: CC[C@H](C)[C@H](NC)C(=O)N[C@H](C(=O)N[C@@H](CC(C)C)C(=O)N[C@@H](CO)C(=O)N[C@@H](CC(C)C)C(=O)N[C@@H](CC(=O)O)C(=O)N[C@@H](C(=O)N1CCC[C@H]1C(=O)N[C@H](C(=O)N[C@@H](CCCCN)C(=O)N[C@@H](CC(C)C)C(=O)N[C@@H](CCCCNC(=O)CC[C@H](NC(=O)CCCCCCCCCCCCCCCCC(=O)O)C(=O)O)C(=O)N[C@@H](CCCCN)C(=O)N[C@H](C(=O)N[C@@H](CC(C)C)C(=O)N[C@@H](CC(C)C)C(=O)N[C@@H](CCC(=O)O)C(=O)N[C@@H](CCC(N)=O)C(=O)N[C@@H](CCC(=O)O)C(=O)N[C@@H](CCCCN)C(=O)N[C@@H](CCC(N)=O)C(=O)N[C@@H](CCCCN)C(=O)N[C@@H](CCCCN)C(=O)N[C@@H](CCC(N)=O)C(=O)N[C@@H](CCCNC(=N)N)C(=O)N[C@@H](CCC(=O)O)C(=O)N[C@@H](CCC(N)=O)C(=O)N[C@@H](C)C(=O)N[C@@H](CCC(=O)O)C(=O)N[C@H](C(=O)N[C@@H](CC(N)=O)C(=O)NC(C)(C)C(=O)N[C@@H](CCC(N)=O)C(=O)N[C@H](C(=O)N[C@@H](CC(C)C)C(=O)N[C@@H](C)C(=O)N[C@@H](CCC(N)=O)C(=O)N[C@H](C(N)=O)C(C)C)[C@@H](C)CC)[C@@H](C)O)[C@@H](C)CC)[C@@H](C)CC)C(C)C)C(C)C
B2: SEQ ID NO 126 (peptide)
peptide: Ac-IVLSLD[dV]PIKLK([γGlu-C18 diacid])KILLEQEKQKKQREQAETNAQILAQV-NH2
SMILES: CC[C@H](C)[C@H](NC(C)=O)C(=O)N[C@H](C(=O)N[C@@H](CC(C)C)C(=O)N[C@@H](CO)C(=O)N[C@@H](CC(C)C)C(=O)N[C@@H](CC(=O)O)C(=O)N[C@@H](C(=O)N1CCC[C@H]1C(=O)N[C@H](C(=O)N[C@@H](CCCCN)C(=O)N[C@@H](CC(C)C)C(=O)N[C@@H](CCCCNC(=O)CC[C@H](NC(=O)CCCCCCCCCCCCCCCCC(=O)O)C(=O)O)C(=O)N[C@@H](CCCCN)C(=O)N[C@H](C(=O)N[C@@H](CC(C)C)C(=O)N[C@@H](CC(C)C)C(=O)N[C@@H](CCC(=O)O)C(=O)N[C@@H](CCC(N)=O)C(=O)N[C@@H](CCC(=O)O)C(=O)N[C@@H](CCCCN)C(=O)N[C@@H](CCC(N)=O)C(=O)N[C@@H](CCCCN)C(=O)N[C@@H](CCCCN)C(=O)N[C@@H](CCC(N)=O)C(=O)N[C@@H](CCCNC(=N)N)C(=O)N[C@@H](CCC(=O)O)C(=O)N[C@@H](CCC(N)=O)C(=O)N[C@@H](C)C(=O)N[C@@H](CCC(=O)O)C(=O)N[C@H](C(=O)N[C@@H](CC(N)=O)C(=O)N[C@@H](C)C(=O)N[C@@H](CCC(N)=O)C(=O)N[C@H](C(=O)N[C@@H](CC(C)C)C(=O)N[C@@H](C)C(=O)N[C@@H](CCC(N)=O)C(=O)N[C@H](C(N)=O)C(C)C)[C@@H](C)CC)[C@@H](C)O)[C@@H](C)CC)[C@@H](C)CC)C(C)C)C(C)C
B3: SEQ ID NO 71 (peptide)
peptide: [NMeI]VLSLD[dV]PIKLK([γGlu-C16 diacid])KILLEQEKQKKQREQAETNEQILAQV-NH2
modifications: N-terminus assumed
SMILES: CC[C@H](C)[C@H](NC)C(=O)N[C@H](C(=O)N[C@@H](CC(C)C)C(=O)N[C@@H](CO)C(=O)N[C@@H](CC(C)C)C(=O)N[C@@H](CC(=O)O)C(=O)N[C@@H](C(=O)N1CCC[C@H]1C(=O)N[C@H](C(=O)N[C@@H](CCCCN)C(=O)N[C@@H](CC(C)C)C(=O)N[C@@H](CCCCNC(=O)CC[C@H](NC(=O)CCCCCCCCCCCCCCC(=O)O)C(=O)O)C(=O)N[C@@H](CCCCN)C(=O)N[C@H](C(=O)N[C@@H](CC(C)C)C(=O)N[C@@H](CC(C)C)C(=O)N[C@@H](CCC(=O)O)C(=O)N[C@@H](CCC(N)=O)C(=O)N[C@@H](CCC(=O)O)C(=O)N[C@@H](CCCCN)C(=O)N[C@@H](CCC(N)=O)C(=O)N[C@@H](CCCCN)C(=O)N[C@@H](CCCCN)C(=O)N[C@@H](CCC(N)=O)C(=O)N[C@@H](CCCNC(=N)N)C(=O)N[C@@H](CCC(=O)O)C(=O)N[C@@H](CCC(N)=O)C(=O)N[C@@H](C)C(=O)N[C@@H](CCC(=O)O)C(=O)N[C@H](C(=O)N[C@@H](CC(N)=O)C(=O)N[C@@H](CCC(=O)O)C(=O)N[C@@H](CCC(N)=O)C(=O)N[C@H](C(=O)N[C@@H](CC(C)C)C(=O)N[C@@H](C)C(=O)N[C@@H](CCC(N)=O)C(=O)N[C@H](C(N)=O)C(C)C)[C@@H](C)CC)[C@@H](C)O)[C@@H](C)CC)[C@@H](C)CC)C(C)C)C(C)C
B4: SEQ ID NO 72 (peptide)
peptide: [NMeI]VLSLD[dV]PIKLK([γGlu-C16 diacid])KILLEQEKQKKQREQAETN[Api]QILAQV-NH2
modifications: N-terminus assumed
SMILES: CC[C@H](C)[C@H](NC)C(=O)N[C@H](C(=O)N[C@@H](CC(C)C)C(=O)N[C@@H](CO)C(=O)N[C@@H](CC(C)C)C(=O)N[C@@H](CC(=O)O)C(=O)N[C@@H](C(=O)N1CCC[C@H]1C(=O)N[C@H](C(=O)N[C@@H](CCCCN)C(=O)N[C@@H](CC(C)C)C(=O)N[C@@H](CCCCNC(=O)CC[C@H](NC(=O)CCCCCCCCCCCCCCC(=O)O)C(=O)O)C(=O)N[C@@H](CCCCN)C(=O)N[C@H](C(=O)N[C@@H](CC(C)C)C(=O)N[C@@H](CC(C)C)C(=O)N[C@@H](CCC(=O)O)C(=O)N[C@@H](CCC(N)=O)C(=O)N[C@@H](CCC(=O)O)C(=O)N[C@@H](CCCCN)C(=O)N[C@@H](CCC(N)=O)C(=O)N[C@@H](CCCCN)C(=O)N[C@@H](CCCCN)C(=O)N[C@@H](CCC(N)=O)C(=O)N[C@@H](CCCNC(=N)N)C(=O)N[C@@H](CCC(=O)O)C(=O)N[C@@H](CCC(N)=O)C(=O)N[C@@H](C)C(=O)N[C@@H](CCC(=O)O)C(=O)N[C@H](C(=O)N[C@@H](CC(N)=O)C(=O)NC1(C(=O)N[C@@H](CCC(N)=O)C(=O)N[C@H](C(=O)N[C@@H](CC(C)C)C(=O)N[C@@H](C)C(=O)N[C@@H](CCC(N)=O)C(=O)N[C@H](C(N)=O)C(C)C)[C@@H](C)CC)CCNCC1)[C@@H](C)O)[C@@H](C)CC)[C@@H](C)CC)C(C)C)C(C)C
B5: SEQ ID NO 129 (peptide)
peptide: Ac-IVLSLD[dV]PIKLK([γGlu-C18 diacid])KILLEQEKQKKQREQAETN[Api]QILAQV-NH2
SMILES: CC[C@H](C)[C@H](NC(C)=O)C(=O)N[C@H](C(=O)N[C@@H](CC(C)C)C(=O)N[C@@H](CO)C(=O)N[C@@H](CC(C)C)C(=O)N[C@@H](CC(=O)O)C(=O)N[C@@H](C(=O)N1CCC[C@H]1C(=O)N[C@H](C(=O)N[C@@H](CCCCN)C(=O)N[C@@H](CC(C)C)C(=O)N[C@@H](CCCCNC(=O)CC[C@H](NC(=O)CCCCCCCCCCCCCCCCC(=O)O)C(=O)O)C(=O)N[C@@H](CCCCN)C(=O)N[C@H](C(=O)N[C@@H](CC(C)C)C(=O)N[C@@H](CC(C)C)C(=O)N[C@@H](CCC(=O)O)C(=O)N[C@@H](CCC(N)=O)C(=O)N[C@@H](CCC(=O)O)C(=O)N[C@@H](CCCCN)C(=O)N[C@@H](CCC(N)=O)C(=O)N[C@@H](CCCCN)C(=O)N[C@@H](CCCCN)C(=O)N[C@@H](CCC(N)=O)C(=O)N[C@@H](CCCNC(=N)N)C(=O)N[C@@H](CCC(=O)O)C(=O)N[C@@H](CCC(N)=O)C(=O)N[C@@H](C)C(=O)N[C@@H](CCC(=O)O)C(=O)N[C@H](C(=O)N[C@@H](CC(N)=O)C(=O)NC1(C(=O)N[C@@H](CCC(N)=O)C(=O)N[C@H](C(=O)N[C@@H](CC(C)C)C(=O)N[C@@H](C)C(=O)N[C@@H](CCC(N)=O)C(=O)N[C@H](C(N)=O)C(C)C)[C@@H](C)CC)CCNCC1)[C@@H](C)O)[C@@H](C)CC)[C@@H](C)CC)C(C)C)C(C)C
B6: SEQ ID NO 127 (peptide)
peptide: Ac-IVLSLD[dV]PIKLK([γGlu-C18 diacid])KILLEQEKQKKQREQAETN[Abu]QILAQV-NH2
SMILES: CC[C@H](NC(=O)[C@H](CC(N)=O)NC(=O)[C@@H](NC(=O)[C@H](CCC(=O)O)NC(=O)[C@H](C)NC(=O)[C@H](CCC(N)=O)NC(=O)[C@H](CCC(=O)O)NC(=O)[C@H](CCCNC(=N)N)NC(=O)[C@H](CCC(N)=O)NC(=O)[C@H](CCCCN)NC(=O)[C@H](CCCCN)NC(=O)[C@H](CCC(N)=O)NC(=O)[C@H](CCCCN)NC(=O)[C@H](CCC(=O)O)NC(=O)[C@H](CCC(N)=O)NC(=O)[C@H](CCC(=O)O)NC(=O)[C@H](CC(C)C)NC(=O)[C@H](CC(C)C)NC(=O)[C@@H](NC(=O)[C@H](CCCCN)NC(=O)[C@H](CCCCNC(=O)CC[C@H](NC(=O)CCCCCCCCCCCCCCCCC(=O)O)C(=O)O)NC(=O)[C@H](CC(C)C)NC(=O)[C@H](CCCCN)NC(=O)[C@@H](NC(=O)[C@@H]1CCCN1C(=O)[C@H](NC(=O)[C@H](CC(=O)O)NC(=O)[C@H](CC(C)C)NC(=O)[C@H](CO)NC(=O)[C@H](CC(C)C)NC(=O)[C@@H](NC(=O)[C@@H](NC(C)=O)[C@@H](C)CC)C(C)C)C(C)C)[C@@H](C)CC)[C@@H](C)CC)[C@@H](C)O)C(=O)N[C@@H](CCC(N)=O)C(=O)N[C@H](C(=O)N[C@@H](CC(C)C)C(=O)N[C@@H](C)C(=O)N[C@@H](CCC(N)=O)C(=O)N[C@H](C(N)=O)C(C)C)[C@@H](C)CC

Key:
CRF1R receptor = target: T1, CRF1R receptor; test: cell-based or functional assay
[1] = target: human corticotropin-releasing factor 2a (CRF2a receptor) (human), Q13324; test: cell-based or functional assay
human corticotropin-releasing factor 2a (CRF2a receptor) (human), Q13324, sequence (Q13324 20-411): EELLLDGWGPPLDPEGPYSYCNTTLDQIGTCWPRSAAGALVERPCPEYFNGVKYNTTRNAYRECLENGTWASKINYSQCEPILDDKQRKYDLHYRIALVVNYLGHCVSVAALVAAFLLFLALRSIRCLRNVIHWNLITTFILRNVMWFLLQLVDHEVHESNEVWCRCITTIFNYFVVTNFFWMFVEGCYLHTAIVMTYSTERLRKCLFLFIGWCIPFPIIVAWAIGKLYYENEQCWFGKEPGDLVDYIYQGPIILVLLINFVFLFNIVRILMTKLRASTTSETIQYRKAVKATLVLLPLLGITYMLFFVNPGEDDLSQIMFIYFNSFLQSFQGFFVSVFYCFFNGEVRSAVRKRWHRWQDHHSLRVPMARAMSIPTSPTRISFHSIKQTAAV

Binder	Emax (% I) (CRF1R receptor)	EC50 [nM] (cAMP) [1]	EC50 (CRF1R receptor)
B1	9%	0.07 nM	–
B2	20%	0.05 nM	–
B3	-4%	0.21 nM	–
B4	18%	0.14 nM	–
B5	39%	0.14 nM	236 nM
B6	11%	0.08 nM	–
